Measurements published in patent US20200354462A1.

Biological target: human GnRH receptor expressed on the surface of OC-3-VGH cancer cells (human) (UniProt P30968)
Assay: cell-based or functional assay

Chain of UniProt P30968 (P30968 whole entry): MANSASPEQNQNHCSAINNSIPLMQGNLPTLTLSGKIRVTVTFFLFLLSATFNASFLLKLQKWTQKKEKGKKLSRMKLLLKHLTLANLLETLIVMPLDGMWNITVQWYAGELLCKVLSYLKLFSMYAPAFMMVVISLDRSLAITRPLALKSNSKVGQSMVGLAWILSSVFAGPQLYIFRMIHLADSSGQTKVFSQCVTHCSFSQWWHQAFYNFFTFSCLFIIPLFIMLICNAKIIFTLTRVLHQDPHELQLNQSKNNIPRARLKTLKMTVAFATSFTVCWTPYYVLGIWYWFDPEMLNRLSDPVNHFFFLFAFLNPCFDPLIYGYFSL

antide (peptide)
GnRH gene expression in cancer cells: 50%
